Here are results for four substances from publication PMC2408619.

Assay [1] deals with Biotinylated Prn-E (pertactin residues 38-640 with N-terminal biotinylation sequence) (B. bronchiseptica) (UniProt Q03035). Description: SPR. The note with it: natural protein.
The target of assay [2] is His-tagged ectodomain of B. bronchiseptica pertactin (Prn-E; residues 38-640) (B. bronchiseptica) (UniProt Q03035). Description: not stated; unpublished data; stoichiometry of Mtd-P6 with pertactin.
Assay [3] addresses Biotinylated Prn-E (pertactin residues 38-640 with N-terminal biotinylation sequence) (B. bronchiseptica) (UniProt Q03035). The assay can be described thus: SPR; Biacore 3000, 25 °C; ~100 RU biotinylated Prn-E on a streptavidin chip; Mtd proteins injected in 150 mM NaCl, 50 mM Tris pH 8.0, 0.005% Tween 20 at 30 μl/min; single-site model, global fit, six concentrations, duplicate.

The target in assay [4] is Pertactin (Prn-E) ectodomain (Bordetella bronchiseptica) (UniProt Q03035). The assay can be described thus: ITC. The note with it: cited from earlier work.
For assay [5], the target named is His-tagged ectodomain of B. bronchiseptica pertactin (Prn-E; residues 38-640) (B. bronchiseptica) (UniProt Q03035). The assay can be described thus: pull-down; varying concentrations of Mtd incubated with 80 μM His-tagged Prn-E (5 min, 25 °C) before adding Ni2+-NTA beads; apparent Kd of Mtd-M1 estimated against Mtd-P6 with the Langmuir isotherm.

Some results are limits rather than exact numbers.

Regarding “Bordetella bacteriophage major tropism determinant variant Mtd-P6 (from UniProt Q775D6 1-381)”, the dissociation rate constant (koff) in assay [1] worked out at 0.112 s⁻¹. As to “Bordetella bacteriophage major tropism determinant variant Mtd-P6 (from UniProt Q775D6 1-381) (natural protein)”, the stoichiometry N (Mtd-P6 protomers per pertactin) in assay [2] turned out to be 3. In assay [3], this substance returned a Kd of 5.19 µM and a kon of 10000 M⁻¹ s⁻¹. For Mtd-P1 (from UniProt Q775D6), the Kd in assay [4] is 3.04 µM. With “Bordetella bacteriophage major tropism determinant variant Mtd-M1 (from UniProt Q775D6 1-381) (natural protein)”, the Kd in assay [5] was 500 µM; in assay [3] it was > 450 µM.
